According to patent US12295987B2, “Method of using a GIP/GLP1 co-agonist for diabetes” (Eli Lilly and Company, priority 2018, dated 2025):
Numbered stars: 1 amine (or outer) side, 2 acyl side, 3 side chain; on linkers, the order of the positions; unused ones are H or OH. Square brackets hold non-standard residues; d marks the D form. Side chains are listed from the residue outwards. Ends that are not written are not given here. * marks the point of attachment. C20 diacid = O=C(O)CCCCCCCCCCCCCCCCCCC(=O)*; γGlu = O=C(O)[C@H](CCC(=O)[*:2])N[*:1]; αMeL = CC(C)C[C@](C)(N)C(=O)O; αMeK = C[C@](N)(CCCCN)C(=O)O; AEEA = NCCOCCOCC(=O)O; Aib = CC(C)(N)C(=O)O

Each substance was assayed against T1, human gastric inhibitory peptide receptor (hGIPR) (Homo sapiens, UniProt P48546) (assay: cAMP pharmacological functional assay in presence of 0.1% casein, hGIPR). Details: ratio of hGIPR to hGLP1R cAMP EC50 ratios.
T1 construct: expressed in transfected cells; host or cells: HEK293
T1 sequence (P48546 22-466): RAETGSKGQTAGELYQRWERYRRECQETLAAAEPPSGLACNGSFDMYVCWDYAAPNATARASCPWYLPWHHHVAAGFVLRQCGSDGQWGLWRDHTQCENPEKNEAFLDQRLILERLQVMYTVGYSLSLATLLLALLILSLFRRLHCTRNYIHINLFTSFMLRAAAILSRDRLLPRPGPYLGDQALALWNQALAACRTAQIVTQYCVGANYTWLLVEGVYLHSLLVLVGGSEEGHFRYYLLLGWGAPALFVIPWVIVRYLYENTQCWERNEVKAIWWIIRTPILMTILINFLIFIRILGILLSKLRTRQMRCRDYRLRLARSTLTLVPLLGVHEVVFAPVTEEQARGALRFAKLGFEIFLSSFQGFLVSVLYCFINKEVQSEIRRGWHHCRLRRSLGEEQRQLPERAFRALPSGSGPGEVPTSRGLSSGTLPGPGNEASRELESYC
Format: cell-based

| Substance | [hGIPR/hGLP1R] EC50 Ratio |
| --- | --- |
| Y-Aib-EGTFTSDY-aMeS-ILLDKK((2-[2-(2-Amino-ethoxy)-ethoxy]-acetyl)2-(γGlu)-CO—(CH2)18—CO2H)AQ-Aib-AFIEYLIEGGPSSGAPPPS-NH2 (YXEGTFTSDYXILLDKKAQXAFIEYLIEGGPSSGAPPPS; Aib, αMeS, lipidated Lys, C-terminal amide; (2)..(2) Xaa at position 2 is Aib; (11)..(11) Xaa at position 11 is alpha-methyl-Ser; MOD_RES (17)..(17) Lys at position 17 is chemically modified by conjugation of the epsilon-amino group of the Lys side chain with (2-[2-(2-amino-ethoxy)-ethoxy]-acetyl)2-(gamma-Glu)-CO-(CH2)18- CO2H; (20)..(20) Xaa at position 20 is Aib; MOD_RES (39)..(39) Ser at position 39 is amidated) [Peptide 68] | 4.72 |
| Y-Aib-EGTFTSDYSI-αMeL-LD-Aib-K((2-[2-(2-Amino-ethoxy)-ethoxy]-acetyl)2-(γGlu)-CO—(CH2)18—CO2H)AQ-Aib-AFIEYLIEGGPSSGAPPPS-NH2 (YXEGTFTSDYSIXLDXKAQXAFIEYLIEGGPSSGAPPPS; Aib, αMeL, lipidated Lys, C-terminal amide; (2)..(2) Xaa at position 2 is Aib; (13)..(13) Xaa at position 13 is alpha-methyl-Leu; (16)..(16) Xaa at position 16 is Aib; MOD_RES (17)..(17) Lys at position 17 is chemically modified by conjugation of the epsilon-amino group of the Lys side chain with (2-[2-(2-amino-ethoxy)-ethoxy]-acetyl)2-(gamma-Glu)-CO-(CH2)18- CO2H; (20)..(20) Xaa at position 20 is Aib; MOD_RES (39)..(39) Ser at position 39) [Peptide 60] | 4.47 |
| Y-Aib-EGTFTSDYSI-αMeL-LDEK((2-[2-(2-Amino-ethoxy)-ethoxy]-acetyl)2-(γGlu)-CO—(CH2)18—CO2H)AQ-Aib-AFIEYLIEGG-NH2 (YXEGTFTSDYSIXLDEKAQXAFIEYLIEGG; Aib, αMeL; K lipidated C20 diacid-γGlu-AEEA2; C-terminal amide; (2)..(2) Xaa at position 2 is Aib; (13)..(13) Xaa at position 13 is alpha-methyl-Leu; MOD_RES (17)..(17) Lys at position 17 is chemically modified by conjugation of the epsilon-amino group of the Lys side chain with (2-[2-(2-amino-ethoxy)-ethoxy]-acetyl)2-(gamma-Glu)-CO-(CH2)18- CO2H; (20)..(20) Xaa at position 20 is Aib; MOD_RES (30)..(30) Gly at position 30 is amidated) [Peptide 63] | 4.09 |
| Y-Aib-EGTFTSDYSI-αMeL-LDEK((2-[2-(2-Amino-ethoxy)-ethoxy]-acetyl)2-(γGlu)-CO—(CH2)18—CO2H)AQ-Aib-AFIEYLLEGGPSSGAPPPS-NH2 (YXEGTFTSDYSIXLDEKAQXAFIEYLLEGGPSSGAPPPS; Aib, αMeL, lipidated Lys, C-terminal amide; (2)..(2) Xaa at position 2 is Aib; (13)..(13) Xaa at position 13 is alpha-methyl-Leu; MOD_RES (17)..(17) Lys at position 17 is chemically modified by conjugation of the epsilon-amino group of the Lys side chain with (2-[2-(2-amino-ethoxy)-ethoxy]-acetyl)2-(gamma-Glu)-CO-(CH2)18- CO2H; (20)..(20) Xaa at position 20 is Aib; MOD_RES (39)..(39) Ser at position 39 is amidated) [Peptide 66] | 7.41 |
| Y-Aib-EGTFTSDYSI-αMeL-LDEK((2-[2-(2-Amino-ethoxy)-ethoxy]-acetyl)2-(γGlu)-CO—(CH2)18—CO2H)AQ-αMeK-AFIEYLLE-Aib-GPSSGAPPPS-NH2 (Y[Aib]EGTFTSDYSI[αMeL]LDEK([AEEA-AEEA-γGlu-C20 diacid])AQ[αMeK]AFIEYLLE[Aib]GPSSGAPPPS-NH2; N-terminus assumed; SMILES CC[C@H](C)[C@H](NC(=O)[C@H](Cc1ccccc1)NC(=O)[C@H](C)NC(=O)[C@](C)(CCCCN)NC(=O)[C@H](CCC(N)=O)NC(=O)[C@H](C)NC(=O)[C@H](CCCCNC(=O)COCCOCCNC(=O)COCCOCCNC(=O)CC[C@H](NC(=O)CCCCCCCCCCCCCCCCCCC(=O)O)C(=O)O)NC(=O)[C@H](CCC(=O)O)NC(=O)[C@H](CC(=O)O)NC(=O)[C@H](CC(C)C)NC(=O)[C@](C)(CC(C)C)NC(=O)[C@@H](NC(=O)[C@H](CO)NC(=O)[C@H](Cc1ccc(O)cc1)NC(=O)[C@H](CC(=O)O)NC(=O)[C@H](CO)NC(=O)[C@@H](NC(=O)[C@H](Cc1ccccc1)NC(=O)[C@@H](NC(=O)CNC(=O)[C@H](CCC(=O)O)NC(=O)C(C)(C)NC(=O)[C@@H](N)Cc1ccc(O)cc1)[C@@H](C)O)[C@@H](C)O)[C@@H](C)CC)C(=O)N[C@@H](CCC(=O)O)C(=O)N[C@@H](Cc1ccc(O)cc1)C(=O)N[C@@H](CC(C)C)C(=O)N[C@@H](CC(C)C)C(=O)N[C@@H](CCC(=O)O)C(=O)NC(C)(C)C(=O)NCC(=O)N1CCC[C@H]1C(=O)N[C@@H](CO)C(=O)N[C@@H](CO)C(=O)NCC(=O)N[C@@H](C)C(=O)N1CCC[C@H]1C(=O)N1CCC[C@H]1C(=O)N1CCC[C@H]1C(=O)N[C@@H](CO)C(N)=O) [Peptide 22] | 6.41 |
| Y-Aib-EGTFTSDYSI-αMeL-LDEK((2-[2-(2-Amino-ethoxy)-ethoxy]-acetyl)2-(γGlu)-CO—(CH2)18—CO2H)AQ-αMeK-AFIEYLLEGGPSSGAPPPS-NH2 (Y[Aib]EGTFTSDYSI[αMeL]LDEK([AEEA-AEEA-γGlu-C20 diacid])AQ[αMeK]AFIEYLLEGGPSSGAPPPS-NH2; N-terminus assumed; SMILES CC[C@H](C)[C@H](NC(=O)[C@H](Cc1ccccc1)NC(=O)[C@H](C)NC(=O)[C@](C)(CCCCN)NC(=O)[C@H](CCC(N)=O)NC(=O)[C@H](C)NC(=O)[C@H](CCCCNC(=O)COCCOCCNC(=O)COCCOCCNC(=O)CC[C@H](NC(=O)CCCCCCCCCCCCCCCCCCC(=O)O)C(=O)O)NC(=O)[C@H](CCC(=O)O)NC(=O)[C@H](CC(=O)O)NC(=O)[C@H](CC(C)C)NC(=O)[C@](C)(CC(C)C)NC(=O)[C@@H](NC(=O)[C@H](CO)NC(=O)[C@H](Cc1ccc(O)cc1)NC(=O)[C@H](CC(=O)O)NC(=O)[C@H](CO)NC(=O)[C@@H](NC(=O)[C@H](Cc1ccccc1)NC(=O)[C@@H](NC(=O)CNC(=O)[C@H](CCC(=O)O)NC(=O)C(C)(C)NC(=O)[C@@H](N)Cc1ccc(O)cc1)[C@@H](C)O)[C@@H](C)O)[C@@H](C)CC)C(=O)N[C@@H](CCC(=O)O)C(=O)N[C@@H](Cc1ccc(O)cc1)C(=O)N[C@@H](CC(C)C)C(=O)N[C@@H](CC(C)C)C(=O)N[C@@H](CCC(=O)O)C(=O)NCC(=O)NCC(=O)N1CCC[C@H]1C(=O)N[C@@H](CO)C(=O)N[C@@H](CO)C(=O)NCC(=O)N[C@@H](C)C(=O)N1CCC[C@H]1C(=O)N1CCC[C@H]1C(=O)N1CCC[C@H]1C(=O)N[C@@H](CO)C(N)=O) [Peptide 21] | 4.85 |
| Y-Aib-EGTFTSDYSI-αMeL-LDKIAQ-Aib-AFIEYLIK((2-[2-(2-Amino-ethoxy)-ethoxy]-acetyl)2-(γGlu)-CO—(CH2)18—CO2H)GG-NH2 (YXEGTFTSDYSIXLDKIAQXAFIEYLIKGG; Aib, αMeL; K lipidated C20 diacid-γGlu-AEEA2; C-terminal amide; (2)..(2) Xaa at position 2 is Aib; (13)..(13) Xaa at position 13 is alpha-methyl-Leu; (20)..(20) Xaa at position 20 is Aib; MOD_RES (28)..(28) Lys at position 28 is chemically modified by conjugation of the epsilon-amino group of the Lys side chain with (2-[2-(2-amino-ethoxy)-ethoxy]-acetyl)2-(gamma-Glu)-CO-(CH2)18- CO2H; MOD_RES (30)..(30) Gly at position 30 is amidated) [Peptide 97] | 3.56 |
| Y-Aib-EGTFTSDYSI-αMeL-LDKK((2-[2-(2-Amino-ethoxy)-ethoxy]-acetyl)2-(γGlu)-CO—(CH2)18—CO2H)AQ-Aib-AFIEYLIEGG-NH2 (YXEGTFTSDYSIXLDKKAQXAFIEYLIEGG; Aib, αMeL; K lipidated C20 diacid-γGlu-AEEA2; C-terminal amide; (2)..(2) Xaa at position 2 is Aib; (13)..(13) Xaa at position 13 is alpha-methyl-Leu; MOD_RES (17)..(17) Lys at position 17 is chemically modified by conjugation of the epsilon-amino group of the Lys side chain with (2-[2-(2-amino-ethoxy)-ethoxy]-acetyl)2-(gamma-Glu)-CO-(CH2)18- CO2H; (20)..(20) Xaa at position 20 is Aib; MOD_RES (30)..(30) Gly at position 30 is amidated) [Peptide 62] | 5.03 |
